The text below walks through data of article PMC7959344.

Experiment [1] concerns the target RRV 26–95 gH-V5/gL-Flag complex (rhesus monkey rhadinovirus (RRV) isolate 26–95).
Experiment [2] has as its target recombinant RRV 26–95 gH-FcStrep/gL (rhesus monkey rhadinovirus (RRV) isolate 26–95). As to the kind of experiment: ELISA; RRV 26–95 gH-FcStrep/gL coated at 1μg/ml in PBS; Plxdc1 or Plxdc2 ectodomain 2h at room temperature in 10% FBS in PBS; detected by the C-terminal 6XHis Tag; fit: one site specific binding with Hill slope (Prism6).

One may read the EC50 as the concentration needed to bring the measured effect to its halfway point.

In experiment [1], “soluble human Plxdc2, ectodomain (amino acids 31–453) fused to IgG1 Fc with a C-terminal tandem Strep-Tag (from UniProt Q6UX71-1 31-453) (Fc fusion)” displayed an infection of SLK cells by RRV-YFP wt after preincubation with 250nM hPlxdc2-FcStrep, relative to preincubation with FcStrep (Fig 2D) (% of control infection) of 63.5 and an infection of rhesus monkey fibroblasts (RF) by RRV-YFP wt after preincubation with 250nM hPlxdc2-FcStrep, relative to preincubation with FcStrep (Fig 2D) (% of control infection) of 73.9. For “human Plxdc1 ectodomain (aa 1–425) with a 6XHis Tag (from UniProt Q8IUK5-1 19-425) (domain or fragment)”, the 50% effective concentration (EC50) in experiment [2] was found to be 22.2 nM.

Turning to “human Plxdc2 ectodomain (aa 1–453) with a 6XHis Tag (from UniProt Q6UX71-1 31-453) (domain or fragment)”, the EC50 in experiment [2] amounted to 5.2 nM.
